{"source": "paper PMC8822174", "about": "“Evidence for the Rapid and Divergent Evolution of Mycoplasmas: Structural and Phylogenetic Analysis of Enolases” (Frontiers in Molecular Biosciences, 2021)", "target": "the molecule itself", "assay": "native gel or EMSA", "data": [{"protein": "Mycoplasma bovis enolase (enzyme, also called Mb Eno; M. bovis Eno) MPIIERIQAREILDSRGNPTVQVEVTTDYEITGVANVPSGASTGSREALELRDKGTKYEGNWFGGKGVMTAVDNVNEKIAPELIGMSVFDQRAIDKLMIELDGTATKSKLGANAILGVSLAVARAAATELGMPLYRYIGGANAHTLPLPMLNVLNGGEHASNTVDFQEFMIMPVGAKSLREALQMANKVFHNLAKLLKKAGYGTQVGDEGGFAPNCKSHEEVLDYLVEAIKVAGYTPATSGKNAIAIALDAACSELYDENSKKYTFKKLKQAIAEKRSGFEHLDNVKLEYTTDELIEYFGKLIDKYPIISIEDGLAESDWEGFAKMTAKFGSKVQIVGDDLTVTNPKLLEKAIEQKSMNAILIKLNQIGSLSETMDAINKAQKANMACVVSHRSGETEDTTIADLAVAFNTGQIKTGSMSRTDRIAKYNRLLVIEEELGEQSEFEGSKAFYNIK", "values": [{"measurement": "stoichiometry N", "value": 8}]}, {"protein": "Mycoplasma pneumoniae enolase (enzyme, also called Mp Eno; M. pneumoniae Eno) MSAQTGTDLFKIADLFAYQVFDSRGFPTVACVVKLASGHTGEAMVPSGASTGEKEAIELRDGDPKAYFGKGVSQAVQNVNQTIAPKLIGLNATDQAAIDALMIQLDGTPNKAKLGANAILAVSLAVAKAAASAQKTSLFKYLANQVMGLNKTEFILTVPMLNVINGGAHADNNIDFQEFMIMPLGANSMHQALKMASETFHALQKLLKQRGLNTNKGDEGGFAPNLKLAEEALDLMVEAIKAAGYQPGSDIAIALDVAASEFYDDTTKRYVFKKGIKAKILDEKEWSLTTAQMIAYLKKLTEQYPIISIEDGLSEHDWEGMETLTKTLGQHIQIVGDDLYCTNPAIAEKGVAHKATNSILIKLNQIGTLTETIKAINIAKDANWSQVISHRSGETEDTTIADLAVAACTGQIKTGSMSRSERIAKYNRLLQIELELGNNAKYLGWNTFKNIKPQKA", "values": [{"measurement": "stoichiometry N", "value": 2}]}]}
